Test results reported in patent US11130793B2, “GLP-1/GLP-2 dual agonists” (Zealand Pharma A/S, priority 2016, dated 2021).
Square brackets hold non-standard residues; d marks the D form. Peptide text beside a SMILES is read from it. Aib = CC(C)(N)C(=O)O

T1: human GLP-2 receptor (Homo sapiens, UniProt O95838, D470N)
T1 sequence (O95838 1-553 D470N): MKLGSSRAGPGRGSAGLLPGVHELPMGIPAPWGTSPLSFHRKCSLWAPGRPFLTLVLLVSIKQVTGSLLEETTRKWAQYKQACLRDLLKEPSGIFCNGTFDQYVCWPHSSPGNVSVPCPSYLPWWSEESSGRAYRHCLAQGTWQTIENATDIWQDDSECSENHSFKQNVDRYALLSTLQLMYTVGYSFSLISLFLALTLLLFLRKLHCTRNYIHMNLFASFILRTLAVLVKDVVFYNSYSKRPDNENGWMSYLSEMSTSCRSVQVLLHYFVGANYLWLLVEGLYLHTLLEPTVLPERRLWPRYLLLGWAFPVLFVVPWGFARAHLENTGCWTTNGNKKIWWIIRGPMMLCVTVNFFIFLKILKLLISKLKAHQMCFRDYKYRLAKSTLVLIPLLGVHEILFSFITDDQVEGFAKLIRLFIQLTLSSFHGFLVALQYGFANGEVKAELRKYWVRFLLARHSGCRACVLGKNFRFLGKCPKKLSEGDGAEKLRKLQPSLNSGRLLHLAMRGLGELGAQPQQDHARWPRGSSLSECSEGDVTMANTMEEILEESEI

T2: human GLP-2 receptor (hGLP2-R) (human, UniProt O95838)
T2 sequence: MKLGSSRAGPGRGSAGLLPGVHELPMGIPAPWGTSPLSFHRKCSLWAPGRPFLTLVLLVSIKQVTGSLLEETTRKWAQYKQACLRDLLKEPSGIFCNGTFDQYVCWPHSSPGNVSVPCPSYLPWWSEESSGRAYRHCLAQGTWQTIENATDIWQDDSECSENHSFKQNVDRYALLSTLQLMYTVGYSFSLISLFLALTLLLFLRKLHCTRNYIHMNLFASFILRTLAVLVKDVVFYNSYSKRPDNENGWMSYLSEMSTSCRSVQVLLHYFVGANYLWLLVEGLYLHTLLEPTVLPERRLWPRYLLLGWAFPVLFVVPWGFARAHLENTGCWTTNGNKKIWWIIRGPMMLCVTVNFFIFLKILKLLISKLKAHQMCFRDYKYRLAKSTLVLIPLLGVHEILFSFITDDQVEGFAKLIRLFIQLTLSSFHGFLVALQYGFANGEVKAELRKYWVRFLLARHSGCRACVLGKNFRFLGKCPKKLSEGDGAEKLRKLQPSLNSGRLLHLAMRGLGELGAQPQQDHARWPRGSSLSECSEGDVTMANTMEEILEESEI


Columns and labels:
human GLP-1 receptor = molecular target: T3, human GLP-1 receptor (Homo sapiens, UniProt P43220); assay: GLP-1 receptor potency assay (cAMP AlphaScreen, HEK293 cells stably expressing GLP-1R); format: cell-based; conditions: cAMP response, HEK293 cells expressing human GLP-1R; read-out: EC50 GLP-1
T3 construct: expressed in transfected cells
Source text: (§1) One useful in vitro assay for measuring GLP-1 and GLP-2 receptor activity is quantitation of cAMP, i.e. 3′-5′-cyclic adenosine monophosphate, which is a second messenger essential in many biological processes, and one of the most ubiquitous mechanisms for regulating cellular functions. […] Test compounds eliciting an increase in the intracellular level of cAMP can be tested in these assays, and the response normalized relative to a positive and negative control (vehicle) to calculate the EC50 and maximal response from the concentration response curve using the 4-parameter logistic (4PL) nonlinear model for curve fitting.
The cDNA encoding the human glucagon-like peptide 1 receptor (GLP-1R) (primary accession number P43220) was cloned from the cDNA BC112126 (MGC:138331/IMAGE:8327594). The DNA encoding the GLP-1-R was amplified by PCR using primers encoding terminal restriction sites for subcloning. The 5′-end primers additionally encoded a near Kozak consensus sequence to ensure efficient translation. […] The PCR products encoding the GLP-1-R were subcloned into a mammalian expression vector containing a neomycin (G418) resistance marker. The mammalian expression vectors encoding the GLP-1-R were transfected into HEK293 cells by a standard calcium phosphate transfection method. 48 hours post-transfection, cells were seeded for limited dilution cloning and selected with 1 mg/ml G418 in the culture medium. Following 3 weeks in G418 selection clones were picked and tested in a functional GLP-1 receptor potency assay as described below.
(§2) The cAMP AlphaScreen assay from Perkin Elmer was used to quantitate the cAMP response to activation of the GLP1 and GLP2 receptor, respectively. […] Data from test compounds eliciting an increase in the intracellular level of cAMP were normalized relative to the positive and negative control (vehicle) to calculate the EC50 and maximal response from the concentration response curve.

human GLP-2 receptor = molecular target: T1, human GLP-2 receptor; assay: GLP-2 receptor potency assay (cAMP AlphaScreen, HEK293 cells stably expressing GLP-2R); format: cell-based; conditions: cAMP response, HEK293 cells expressing human GLP-2R
Source text: as §1
The hGLP2-R was purchased from MRC-geneservice, Babraham, Cambridge as an Image clone: 5363415 (11924-I17). For subcloning into a mammalian expression vector, primers for subcloning were obtained from DNA-Technology, Risskov, Denmark. The 5′ and 3′ primers used for the PCR reaction include terminal restriction sites for cloning and the context of the 5′ primer is modified to a Kozak consensus without changing the sequence of the product encoded by the ORF. A standard PCR reaction was run using Image clone 5363415 (11924-117) as a template with the above mentioned primers and Polymerase Herculase II Fusion in a total vol. of 50 μl. The generated PCR product was purified using GFX PCR and Gel band purification kit, digested with restriction enzymes and cloned into the mammalian expression vector using Rapid DNA Ligation Kit. Ligation reaction was transformed to XL10 Gold Ultracompetent cells and colonies were picked for DNA production using Endofree Plasmid maxi kit. Subsequent sequence analysis was conducted by MWG Eurofins, Germany.
HEK293 cells were transfected using the Lipofectamine PLUS transfection method. The day before transfection, HEK293 cells were seeded in two T75 flasks at a density of 2×10^6 cells/T75 flask in cell culturing medium without antibiotics. On the day of transfection, cells were washed with 1×DPBS and medium was replaced with Optimem to a volume of 5 mL/T75 flask before addition of Lipofectamine-plasmid complexes were added gently and drop wise to the cells in T75 flasks and replaced with growth medium after 3 hours and again to growth medium supplemented with 500 μg/mL G418 after 24 hours. Following 4 weeks in G418 selection, clones were picked and tested in a functional GLP-2 receptor potency assay as described below.
as §2

[1] = molecular target: human glucagon-like peptide 1 receptor (GLP-1R) (human, UniProt P43220); assay: cell-based or functional assay
[2] = molecular target: T2, human GLP-2 receptor (hGLP2-R); assay: cell-based or functional assay

T3 sequence (P43220 24-463): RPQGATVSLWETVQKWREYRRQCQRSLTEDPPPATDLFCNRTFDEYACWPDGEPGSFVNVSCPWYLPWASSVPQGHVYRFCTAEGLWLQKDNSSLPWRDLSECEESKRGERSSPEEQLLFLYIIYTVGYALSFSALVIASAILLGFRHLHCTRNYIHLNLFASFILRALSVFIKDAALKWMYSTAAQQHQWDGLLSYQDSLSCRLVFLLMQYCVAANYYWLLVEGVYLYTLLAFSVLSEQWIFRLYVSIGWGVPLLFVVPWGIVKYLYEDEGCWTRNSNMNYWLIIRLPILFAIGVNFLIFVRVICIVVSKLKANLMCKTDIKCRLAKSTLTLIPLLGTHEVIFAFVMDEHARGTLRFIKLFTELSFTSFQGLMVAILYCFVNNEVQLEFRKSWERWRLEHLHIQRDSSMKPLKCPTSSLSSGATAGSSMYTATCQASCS

Molecule	EC50 (human GLP-1 receptor) [nM]	EC50 (human GLP-2 receptor) [nM]	EC50 GLP-1 (nM); cAMP AlphaScreen [1] [nM]	EC50 GLP-2 (nM); cAMP AlphaScreen [2] [nM]
CC[C@H](C)[C@H](NC(=O)[C@H](CC(C)C)NC(=O)[C@H](Cc1c[nH]c2ccccc12)NC(=O)[C@H](C)NC(=O)[C@@H](NC(=O)[C@H](Cc1ccccc1)NC(=O)[C@H](CC(=O)O)NC(=O)[C@H](CCCNC(=N)N)NC(=O)[C@H](C)NC(=O)[C@H](C)NC(=O)[C@H](CCC(N)=O)NC(=O)[C@H](CCC(=O)O)NC(=O)[C@H](CC(=O)O)NC(=O)[C@H](CC(C)C)NC(=O)[C@@H](NC(=O)[C@@H](NC(=O)[C@H](C)NC(=O)[C@H](CC(C)C)NC(=O)[C@H](CCC(=O)O)NC(=O)[C@H](CO)NC(=O)[C@H](CO)NC(=O)[C@H](Cc1ccccc1)NC(=O)[C@@H](NC(=O)CNC(=O)[C@H](CCC(=O)O)NC(=O)C(C)(C)NC(=O)[C@@H](N)Cc1c[nH]cn1)[C@@H](C)O)[C@@H](C)O)[C@@H](C)CC)[C@@H](C)CC)C(=O)N[C@@H](C)C(=O)N[C@@H](Cc1c[nH]cn1)C(=O)N[C@@H](CCCCN)C(=O)N[C@H](C(=O)N[C@H](C(=O)N[C@@H](CC(=O)O)C(=O)O)[C@@H](C)O)[C@@H](C)CC [Compound 2] (H-H[Aib]EGTFSSELATILDEQAARDFIAWLIAHKITD-OH)	0.046	0.034		
CC[C@H](C)[C@H](NC(=O)[C@H](Cc1ccccc1)NC(=O)[C@H](CC(=O)O)NC(=O)[C@H](CCCNC(=N)N)NC(=O)[C@H](C)NC(=O)[C@H](C)NC(=O)[C@H](CC(C)C)NC(=O)[C@H](CC(N)=O)NC(=O)[C@H](CC(=O)O)NC(=O)[C@H](CC(C)C)NC(=O)[C@@H](NC(=O)[C@@H](NC(=O)[C@H](CC(N)=O)NC(=O)[C@H](CCSC)NC(=O)[C@H](CCC(=O)O)NC(=O)[C@H](CC(=O)O)NC(=O)[C@H](CO)NC(=O)[C@H](Cc1ccccc1)NC(=O)[C@H](CO)NC(=O)CNC(=O)[C@H](CC(=O)O)NC(=O)CNC(=O)[C@@H](N)Cc1c[nH]cn1)[C@@H](C)O)[C@@H](C)CC)C(=O)N[C@@H](CC(N)=O)C(=O)N[C@@H](Cc1c[nH]c2ccccc12)C(=O)N[C@@H](CC(C)C)C(=O)N[C@H](C(=O)N[C@@H](CCC(N)=O)C(=O)N[C@H](C(=O)N[C@@H](CCCCN)C(=O)N[C@H](C(=O)N[C@H](C(=O)N[C@@H](CC(=O)O)C(=O)O)[C@@H](C)O)[C@@H](C)CC)[C@@H](C)O)[C@@H](C)CC [Teduglutide, [Gly2]-hGLP-2 (1-33), reference compound]	39			
H-HGEGSFSSELATILDEQAARDFIAWLIQHKITD-NH2 [Compound 40]			1.4	0.05
H-H[Aib]EGSFSSELATILDEQAARDFIAWLIQHKITD-OH (SMILES CC[C@H](C)[C@H](NC(=O)[C@H](Cc1ccccc1)NC(=O)[C@H](CC(=O)O)NC(=O)[C@H](CCCNC(=N)N)NC(=O)[C@H](C)NC(=O)[C@H](C)NC(=O)[C@H](CCC(N)=O)NC(=O)[C@H](CCC(=O)O)NC(=O)[C@H](CC(=O)O)NC(=O)[C@H](CC(C)C)NC(=O)[C@@H](NC(=O)[C@@H](NC(=O)[C@H](C)NC(=O)[C@H](CC(C)C)NC(=O)[C@H](CCC(=O)O)NC(=O)[C@H](CO)NC(=O)[C@H](CO)NC(=O)[C@H](Cc1ccccc1)NC(=O)[C@H](CO)NC(=O)CNC(=O)[C@H](CCC(=O)O)NC(=O)C(C)(C)NC(=O)[C@@H](N)Cc1c[nH]cn1)[C@@H](C)O)[C@@H](C)CC)C(=O)N[C@@H](C)C(=O)N[C@@H](Cc1c[nH]c2ccccc12)C(=O)N[C@@H](CC(C)C)C(=O)N[C@H](C(=O)N[C@@H](CCC(N)=O)C(=O)N[C@@H](Cc1c[nH]cn1)C(=O)N[C@@H](CCCCN)C(=O)N[C@H](C(=O)N[C@H](C(=O)N[C@@H](CC(=O)O)C(=O)O)[C@@H](C)O)[C@@H](C)CC)[C@@H](C)CC) [Compound 41]			0.078	0.026

Results, then the molecule that gave them:

EC50 (human GLP-1 receptor) [nM]	EC50 (human GLP-2 receptor) [nM]	EC50 GLP-1 (nM); cAMP AlphaScreen [1] [nM]	EC50 GLP-2 (nM); cAMP AlphaScreen [2] [nM]	Molecule
		0.03	0.96	H-H[Aib]EGTFSSELSTILEEQASREFIAWLIAHKITE-OH (SMILES CC[C@H](C)[C@H](NC(=O)[C@H](CC(C)C)NC(=O)[C@H](Cc1c[nH]c2ccccc12)NC(=O)[C@H](C)NC(=O)[C@@H](NC(=O)[C@H](Cc1ccccc1)NC(=O)[C@H](CCC(=O)O)NC(=O)[C@H](CCCNC(=N)N)NC(=O)[C@H](CO)NC(=O)[C@H](C)NC(=O)[C@H](CCC(N)=O)NC(=O)[C@H](CCC(=O)O)NC(=O)[C@H](CCC(=O)O)NC(=O)[C@H](CC(C)C)NC(=O)[C@@H](NC(=O)[C@@H](NC(=O)[C@H](CO)NC(=O)[C@H](CC(C)C)NC(=O)[C@H](CCC(=O)O)NC(=O)[C@H](CO)NC(=O)[C@H](CO)NC(=O)[C@H](Cc1ccccc1)NC(=O)[C@@H](NC(=O)CNC(=O)[C@H](CCC(=O)O)NC(=O)C(C)(C)NC(=O)[C@@H](N)Cc1c[nH]cn1)[C@@H](C)O)[C@@H](C)O)[C@@H](C)CC)[C@@H](C)CC)C(=O)N[C@@H](C)C(=O)N[C@@H](Cc1c[nH]cn1)C(=O)N[C@@H](CCCCN)C(=O)N[C@H](C(=O)N[C@H](C(=O)N[C@@H](CCC(=O)O)C(=O)O)[C@@H](C)O)[C@@H](C)CC) [Compound 39]
		0.007	0.16	H-H[Aib]EGTFTSELATILDEQAARDFINWLKEQKITD-OH (SMILES CC[C@H](C)[C@H](NC(=O)[C@H](Cc1ccccc1)NC(=O)[C@H](CC(=O)O)NC(=O)[C@H](CCCNC(=N)N)NC(=O)[C@H](C)NC(=O)[C@H](C)NC(=O)[C@H](CCC(N)=O)NC(=O)[C@H](CCC(=O)O)NC(=O)[C@H](CC(=O)O)NC(=O)[C@H](CC(C)C)NC(=O)[C@@H](NC(=O)[C@@H](NC(=O)[C@H](C)NC(=O)[C@H](CC(C)C)NC(=O)[C@H](CCC(=O)O)NC(=O)[C@H](CO)NC(=O)[C@@H](NC(=O)[C@H](Cc1ccccc1)NC(=O)[C@@H](NC(=O)CNC(=O)[C@H](CCC(=O)O)NC(=O)C(C)(C)NC(=O)[C@@H](N)Cc1c[nH]cn1)[C@@H](C)O)[C@@H](C)O)[C@@H](C)O)[C@@H](C)CC)C(=O)N[C@@H](CC(N)=O)C(=O)N[C@@H](Cc1c[nH]c2ccccc12)C(=O)N[C@@H](CC(C)C)C(=O)N[C@@H](CCCCN)C(=O)N[C@@H](CCC(=O)O)C(=O)N[C@@H](CCC(N)=O)C(=O)N[C@@H](CCCCN)C(=O)N[C@H](C(=O)N[C@H](C(=O)N[C@@H](CC(=O)O)C(=O)O)[C@@H](C)O)[C@@H](C)CC) [Compound 37]
		0.008	0.043	H-HGEGTFTSELATILDEQAARDFIAWLIAHKITD-OH [Compound 38]
